This test concerns the target UDP-glucose pyrophosphorylase from sugarcane (ScUGPase-1) (sugarcane (Saccharum spp. hybrids)). Briefly: SEC-MALS; sample of the larger oligomeric form peak; Superdex 200 increase 5/150, room temperature, 2.0 mg/mL, 20 mM Tris/HCl pH 8.0, 20 mM NaCl. On the technique in general: In gel filtration, larger molecules generally elute earlier.

As a reminder, the stoichiometry N is the number of molecules, sites or subunits per partner or assembly. With “UDP-glucose pyrophosphorylase from sugarcane (ScUGPase-1) (from UniProt A0A075E2Q1 1-476) (enzyme)”, the stoichiometry N is 8.

These data come from paper PMC5832301.
